Test results: paper PMC9850050, “A transaminase with β-activity from Variovorax boronicumulans for the production of enantiopure β-amino acids” (Heliyon, 2022)

Experiments:
[1] = biological target: T1, VboTA (Variovorax boronicumulans ω-transaminase) (Variovorax boronicumulans, UniProt Z9A1T7NCF1); experiment: activity at varied substrate concentration; type: biochemical; details: substrate inhibition; pH 9, 30 °C
T1 construct: full length, 433 aa, C-terminal His-tag (pET21b, NdeI/XhoI), codon-optimised, E. coli BL21(DE3), Ni-NTA

[2] = system: NC(CC(=O)O)Cc1ccccc1; experiment: purified protein; details: 5.2 mM 2-oxoglutarate, 0.1 mM PLP, 100 mM potassium borate pH 9, 30 °C, donor 2-10 mM
Excerpt: (§1) glutamate quantification, Lineweaver-Burk on VboTA (Variovorax boronicumulans ω-transaminase)

[3] = system: CC(C)C(N)CC(=O)O; experiment: purified protein; details: 5.2 mM 2-oxoglutarate, 0.1 mM PLP, 100 mM potassium borate pH 9, 30 °C, donor 2-10 mM
Excerpt: as §1

[4] = system: CC(N)CC(=O)O; experiment: purified protein; details: 5.2 mM 2-oxoglutarate, 0.1 mM PLP, 100 mM potassium borate pH 9, 30 °C, donor 2-10 mM
Excerpt: as §1

[5] = system: O=C(O)CCC(=O)C(=O)O; experiment: purified protein; details: 10 mM β-phenylalanine, 0.1 mM PLP, 100 mM potassium borate pH 9, 30 °C, 2-8 mM 2-oxoglutarate
Excerpt: as §1

[6] = system: NC(CC(=O)O)c1ccccc1; experiment: purified protein; details: 5.2 mM 2-oxoglutarate, 0.1 mM PLP, 100 mM potassium borate pH 9, 30 °C, donor 2-10 mM, Km above tested range
Excerpt: as §1

T1 sequence (Z9A1T7NCF1 1-433): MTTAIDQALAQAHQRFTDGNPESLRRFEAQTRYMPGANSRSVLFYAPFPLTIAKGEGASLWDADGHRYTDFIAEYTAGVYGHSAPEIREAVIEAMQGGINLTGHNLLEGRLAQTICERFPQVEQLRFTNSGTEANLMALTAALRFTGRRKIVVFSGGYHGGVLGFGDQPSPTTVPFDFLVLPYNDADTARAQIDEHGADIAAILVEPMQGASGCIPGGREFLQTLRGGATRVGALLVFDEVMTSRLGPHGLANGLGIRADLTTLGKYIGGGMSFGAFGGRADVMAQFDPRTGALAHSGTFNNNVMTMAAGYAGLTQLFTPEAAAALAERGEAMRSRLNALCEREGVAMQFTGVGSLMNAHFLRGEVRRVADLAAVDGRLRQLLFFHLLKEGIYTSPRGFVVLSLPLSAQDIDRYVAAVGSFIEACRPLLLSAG

## O=C(O)CCC(=O)C(=O)O [2-Oxoglutaric acid]
[1]
  loss of activity at 20 mM: ~ 70%

## VboTA (Variovorax boronicumulans ω-transaminase) (Variovorax boronicumulans)
[2]
  Km: 0.7 ± 0.2 mM
  Vmax: 1.1 µmol/min
  kcat: 1.6 ± 0.07 s⁻¹
  kcat/Km: 2200 ± 100 M⁻¹ s⁻¹
[3]
  Km: 44.7 ± 1.2 mM
  Vmax: 48.5 µmol/min
  kcat: 66.5 ± 7.1 s⁻¹
  kcat/Km: 1500 ± 200 M⁻¹ s⁻¹
[4]
  Km: 4.4 ± 0.3 mM
  Vmax: 1.4 µmol/min
  kcat: 2 ± 0.2 s⁻¹
  kcat/Km: 450 ± 50 M⁻¹ s⁻¹
[5]
  Km: 2.1 ± 0.4 mM
  Vmax: 24.9 µmol/min
  kcat: 34.2 ± 2.7 s⁻¹
  kcat/Km: 16200 ± 1300 M⁻¹ s⁻¹
[6]
  Km: 24.7 ± 3.8 mM
  Vmax: 20.5 µmol/min
  kcat: 28.1 ± 3.3 s⁻¹
  kcat/Km: 1100 ± 100 M⁻¹ s⁻¹
